# Data as given in US20110230416A1.
# Biological target: hLDLR of non-genetically modified human cells (human fibroblasts, HUVEC) (human), P01130
# Assay: FACS on HUVEC
# hLDLR of non-genetically modified human cells (human fibroblasts, HUVEC) (human), P01130, sequence (P01130 22-860): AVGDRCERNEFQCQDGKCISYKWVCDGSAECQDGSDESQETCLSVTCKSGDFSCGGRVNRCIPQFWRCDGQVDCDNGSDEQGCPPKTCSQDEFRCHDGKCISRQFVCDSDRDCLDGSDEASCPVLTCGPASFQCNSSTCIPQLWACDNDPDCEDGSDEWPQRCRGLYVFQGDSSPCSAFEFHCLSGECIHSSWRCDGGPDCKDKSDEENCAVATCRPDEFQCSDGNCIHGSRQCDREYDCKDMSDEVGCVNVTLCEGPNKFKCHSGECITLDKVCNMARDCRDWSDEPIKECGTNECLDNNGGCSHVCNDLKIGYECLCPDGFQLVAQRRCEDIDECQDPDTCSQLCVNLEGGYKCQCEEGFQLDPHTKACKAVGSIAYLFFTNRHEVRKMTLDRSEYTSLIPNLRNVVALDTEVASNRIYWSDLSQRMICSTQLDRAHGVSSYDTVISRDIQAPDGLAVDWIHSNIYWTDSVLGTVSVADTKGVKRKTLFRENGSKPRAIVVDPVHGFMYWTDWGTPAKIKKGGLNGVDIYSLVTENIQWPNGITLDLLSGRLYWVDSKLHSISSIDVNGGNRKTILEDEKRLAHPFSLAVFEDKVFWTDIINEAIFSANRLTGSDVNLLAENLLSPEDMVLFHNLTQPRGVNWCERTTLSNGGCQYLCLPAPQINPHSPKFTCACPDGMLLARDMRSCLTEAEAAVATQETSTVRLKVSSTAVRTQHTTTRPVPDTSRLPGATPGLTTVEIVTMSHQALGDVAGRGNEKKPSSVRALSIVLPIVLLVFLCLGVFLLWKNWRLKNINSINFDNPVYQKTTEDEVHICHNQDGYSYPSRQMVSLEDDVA
row,Binder,percentage of shift of the fluorescence signal in zone Q2
1,TPSAHAMALQSLSVG (modifications not checked) [bacterial virus clone expressing linear peptide SEQ ID NO: 21],> 55.8%
2,DSGLCMPRLRGCDPR (modifications not checked) [bacterial virus clone expressing cyclic peptide SEQ ID NO: 11],> 70%
